In patent publication US20260176352A1 (BIRD ROCK BIO, published 2026):

How the values were obtained:
[1] = target: T1, native full length human CB1 receptor (cannabinoid 1 receptor) (human, UniProt P21554 1-472); test: cell-based or functional assay
[2] = target: T1, native full length human CB1 receptor …; test: flow cytometry, Fab on TRex-CHO human CB1 cells
mouse CB1 = target: T2, mouse CB1 (mouse, UniProt P47746 1-473); test: flow cytometry on cells expressing the target
T2 construct: whole, on cells; also called TRexCHO Mouse CB1
T2 sequence (P47746 whole entry): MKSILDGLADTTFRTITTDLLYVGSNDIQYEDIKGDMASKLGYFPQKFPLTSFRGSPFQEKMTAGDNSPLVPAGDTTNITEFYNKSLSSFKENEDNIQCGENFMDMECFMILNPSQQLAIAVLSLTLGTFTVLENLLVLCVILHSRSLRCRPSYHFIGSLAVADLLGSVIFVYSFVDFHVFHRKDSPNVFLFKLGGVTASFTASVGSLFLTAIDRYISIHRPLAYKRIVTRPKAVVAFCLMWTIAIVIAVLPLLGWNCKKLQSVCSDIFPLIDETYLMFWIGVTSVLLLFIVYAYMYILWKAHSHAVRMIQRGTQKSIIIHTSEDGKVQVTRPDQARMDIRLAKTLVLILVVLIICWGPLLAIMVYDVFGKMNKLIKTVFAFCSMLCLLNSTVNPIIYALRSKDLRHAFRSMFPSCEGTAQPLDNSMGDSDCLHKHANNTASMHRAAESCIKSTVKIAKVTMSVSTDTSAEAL

[3] = target: 5HT2B (expression cell line) (Homo sapiens (Human), UniProt P41595 1-481); test: flow cytometry on cells expressing the target
Chain of 5HT2B (expression cell line) (P41595 whole entry): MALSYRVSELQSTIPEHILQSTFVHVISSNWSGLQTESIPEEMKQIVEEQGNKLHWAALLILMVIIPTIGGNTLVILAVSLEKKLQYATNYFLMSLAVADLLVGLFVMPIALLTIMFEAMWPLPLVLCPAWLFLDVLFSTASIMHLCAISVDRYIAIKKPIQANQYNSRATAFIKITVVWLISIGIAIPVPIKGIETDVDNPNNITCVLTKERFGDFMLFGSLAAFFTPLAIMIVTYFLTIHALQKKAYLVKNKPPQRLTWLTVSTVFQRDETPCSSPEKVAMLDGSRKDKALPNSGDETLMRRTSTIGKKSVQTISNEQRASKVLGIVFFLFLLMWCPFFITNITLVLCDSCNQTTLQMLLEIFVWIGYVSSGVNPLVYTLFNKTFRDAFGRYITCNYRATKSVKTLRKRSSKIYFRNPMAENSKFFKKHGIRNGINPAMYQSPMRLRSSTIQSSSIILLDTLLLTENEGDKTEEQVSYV

human CB2 = target: T3, human CB2 (human, UniProt P34972 1-360); test: flow cytometry on cells expressing the target
T3 construct: whole, on cells; also called TRexCHO Human CB2
T3 sequence (P34972 whole entry): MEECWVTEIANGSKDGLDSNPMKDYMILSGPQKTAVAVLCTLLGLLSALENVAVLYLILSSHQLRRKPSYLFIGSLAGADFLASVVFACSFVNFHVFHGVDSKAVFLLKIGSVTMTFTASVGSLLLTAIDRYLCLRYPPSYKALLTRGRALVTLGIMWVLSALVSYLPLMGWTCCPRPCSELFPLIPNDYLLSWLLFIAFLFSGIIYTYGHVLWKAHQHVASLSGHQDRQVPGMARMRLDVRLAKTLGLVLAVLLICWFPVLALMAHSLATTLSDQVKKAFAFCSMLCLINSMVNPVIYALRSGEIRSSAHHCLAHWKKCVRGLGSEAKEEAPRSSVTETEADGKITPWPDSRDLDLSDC

T1 sequence (P21554 whole entry): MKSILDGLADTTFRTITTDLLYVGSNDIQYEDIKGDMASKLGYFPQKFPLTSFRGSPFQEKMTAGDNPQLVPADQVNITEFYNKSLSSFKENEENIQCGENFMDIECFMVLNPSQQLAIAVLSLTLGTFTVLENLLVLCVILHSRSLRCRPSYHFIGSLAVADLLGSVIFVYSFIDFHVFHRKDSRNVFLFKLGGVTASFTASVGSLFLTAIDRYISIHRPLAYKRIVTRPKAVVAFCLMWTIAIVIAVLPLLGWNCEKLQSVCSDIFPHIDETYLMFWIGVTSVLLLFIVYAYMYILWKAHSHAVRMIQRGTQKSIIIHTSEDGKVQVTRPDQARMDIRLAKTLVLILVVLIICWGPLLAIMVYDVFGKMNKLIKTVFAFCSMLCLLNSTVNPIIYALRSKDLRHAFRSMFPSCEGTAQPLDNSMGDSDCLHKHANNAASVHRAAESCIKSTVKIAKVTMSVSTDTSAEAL

IC50 cAMP assay [1]: 427 nM
Kd [2]: 130 nM
binding result (mouse CB1): no binding (tested: 1 µM)
binding result [3]: no binding (tested: 1 µM)
binding result (human CB2): no binding (tested: 1 µM)
B1: PA13R3-P1C4 Fab (Fab, V domains shown)
VH: EVQLQQSGAELVRPGVSVKISCKASGYEFSYYWMNWVKQRPGQGLEWIGQIYPGDGETKYNGKFKGKATLTADKSSNTAYMQLSSLTSEDSAVYFCARSHGNYLPYWGQGTLVTVSA
VL: DIVLTQSPAIMSASLGERVTMTCTASSSVSSSYLHWYQQKPGSSPKLWIYSTSNLASGVPARFSGSGSGTSYSLTISSMEAEDAATYYCHQYHRSPPTFGAGTKLELK
notes: also called Chimeric P1C4 Fab
